{"source": "paper PMC6935017", "about": "(Cell, 2018)", "proteins": {"B1": {"name": "Streptococcus thermophilus Csm3 (natural protein, Streptococcus thermophilus ND03)", "chain": "MTFAKIKFSAQIRLETGLHIGGSDAFAAIGAIDSPVIKDPITNIPIIPGSSLKGKMRTLLAKVYNEKVAEKPSDDSDILSRLFGNSKDKRFKMGRLIFRDAFLSNADELDSLGVRSYTEVKFENTIDRITAEANPRQIERAIRNSTFDFELIYEITDENENQVEEDFKVIRDGLKLLELDYLGGSGSRGYGKVAFEKLKATTVFGNYDVKTLNELLTAEV"}, "B2": {"name": "Streptococcus thermophilus Csm2 (natural protein, Streptococcus thermophilus ND03, UniProt A0A0A7HIX1 1-121, looked up)", "chain": "MAILTDENYVDKAERAISLLEKDNKGNYLLTTSQIRKLLSLCSSLYDRSKERKFDELINDVSYLRVQFVYQAGREIAVKDLIEKAQILEALKEIKDRETLQRFCRYMEALVAYFKFYGGKD"}}, "target": "the molecule itself", "experiment": "crystal structure"}
{"protein": "B1", "values": [{"measurement": "stoichiometry N", "value": 3}]}
{"protein": "B2", "values": [{"measurement": "stoichiometry N", "value": 2}]}
